The nanobody polyreactivity screen of Harvey et al. (2022)

Experiment: yeast display, Sf9 membrane polyspecificity reagent, FACS + sequencing; frameworks hold sequencing errors
Procedure, shortened: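 Polyreactivity labels are assigned by the sorting gate from which each nanobody was recovered. The gates were low and high (top ~1%), set on anti-HA fluorescence for expression and streptavidin fluorescence for reagent binding. Before sorting, galactose-induced (36–48 hours) yeast display cells were stained for 1 hour at 4 °C with 10% biotinylated, detergent-solubilized Sf9 membrane reagent.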

Sequence	polyreactivity (PSR sort gate)
QVQLVESGGGLVQAGGSLRLSCAASGRIFSLYTMGWYRQAPGKERELVATINRSSVSTRYADSVKGRFTISRDNAKNTGYLQMNSLKPEDTAVYYCAAQRSTRYPLYYWGQGTQVTVSS	high polyreactivity
QVQLVESGGGLVQAGGSLRLSCAASGRTFRYYAMGWYRQAPGKEREFVAAITKRGGSTYYADSVKGRFTISRDNAKNTVYLQMNSLKPEDTAVYYCAAYPAAQFSTFSYDSWGQGTQVTVSS	high polyreactivity
QVQLVESGGGLVQAGGSLRLSCAASGFTFWRNVMGWYRQAPGKERELVAVISRGGSTNYADSVKGRFTISRDNAKNTVYLKMNSLIPEDTAVYYFAKYARGPSKVDYWGQGTQVTVSS	high polyreactivity
QVQLVESGRGLVQAGGSLRLSCAASGFIFGGYAMGWYRQAPGKERELVAAISRSGGSTYYADSVKGRFTISRDNAKNTVYLQMNSLKPEDTAVYYCAAKFWPEDHRLDYWGQGTQVTVSS	low polyreactivity
QVQLVESGGRLVQAGGSLRLSCAASGSIFVKYAMGWYRPAPGKERELVAAISGSGGSTYYADSVKGRFTISRDNAKTTVYLEMNSLKPEDTAVYYCAADDYFYSGRYGFEFWGHGTQVTVSS	low polyreactivity
QLQLVESGGGLVQAGRRLRLTCAASGSIFQGNVMGWYRQAPGKERELVAAITWSGGRTYYADSVKGRFTISRDHAKNTVYLQMNSMNPDDTAVYYCNAVIGRELDYWGQGTKVTVSS	high polyreactivity
QVQLVESGGGLVQAGGSLRLSCAASGSIFGYNARGWYRQAPGKERELVATINWSGTSTYYAASVKGRFTISRDNAKNTVYLQMNSLKPVDTAVYYCNAKYLWYGRYNYWGQGTQVTVSS	high polyreactivity
QVQLVESGGGLVQAGGSLRLSCAASGFTFWDYTMGWYRQAPAKERELVAAINRGGNTYYADSVKGRFTISRDNAKNTVYLQMNSLKPEDSADYYCAARRRSRQYRYDYWGQGTQVTVSS	high polyreactivity
QVQLVESGGGLVQAGGSLRLSCAASGFTFPWYAMGWYRQAPGKERELVAAINTGGSTYYADSVKGRFTISRDNAKNTVYLQMNSLKPEDTAVYYCATLGRYRYLNTYYWGSHDYWGQGTQVTVSS	high polyreactivity
QVQLEESGGGLVQAGGSLRLSCPASGSTFIVNVMGWYRQAPGKERELVAAINSGGSTDYADSVKGRFTISRDNAKNTVYLQMNSLKPEDTAVYYCNAYHIVIYDYWGQGTQVTVSS	low polyreactivity
QVQLVESGGGLVQAGGSLRLRCAASGRYAMGWYRQAPGKEREFVARITWSGGSTYYADSVKGRFTISRDNAKNTVYLQMNSLNPEDTAVYYCAKVSRRTDYYYWGQGTQVTVSS	high polyreactivity
QVQLVESGGGLVQAGGSLRLSCAASGNMFYANAMGWYRQAPGKERELVAAISGSVCSTYADSVKGRFTISRDNAKNTVYLQMNSLKPEDTAVYYCNASVLDAIFYKSVGYDYWGQGTQVTVSS	low polyreactivity
QVQLVESGGGLVQAGGSLRLSCAASGRTFDAYAMGWYRQAPGKERELVATITSGGGTYYADSVKGRFTISRDNAKNTVYLQMNSLKPEDTAVYYCKKRYVVSRKYDYWGQGTQVTVSS	low polyreactivity
QVQLVESGGGLVQAGGSLRLSCAASGFTFAVYDMGWYRQAPGKERELVAVISSVGSTNYADSVKGRFTISRDNAKNTVYLQMNSLKPEDTAVYYCNAVYWYRDRWYQTGYGYWGQGTQVTVSS	high polyreactivity
QVQLVESGGGLVQAGGSLRLRCAASGHIFRQYAMGWYRQAPGKERELVAAITSGGSTYYADSVKGRFTISRDNAKNTVYLEMNSLKPEDNAVYYCADKYFFSYRHGDYWGQGNQVTVSS	low polyreactivity
QVQLVESGGGLVQAGGSLRLSCAASGFIFWYYALGWYRQAPGKERELVAAISARDGSTYYADSVKGRFTISRDNAKNTVYLQMNSLKPEDTAVYYCNAVQRYPKFRMDYWGQGTQVTVSS	low polyreactivity
QVQLVESGGGLVHAGGSLRLSCAASGLISYRYAMGWYRQAPGKERELVAAISWRGGSTYYADSVKGRFTISRDNAKNTVYLQMNSLKPDDTAVYYCNALGLGLFDYWGQGTQVTVSS	high polyreactivity
QVQLVESGGGLVQAGGSLRLSCAASGGTFYVNAMGLYRQAPGKERELVAGIRESGASTYYADSVKGRFTISRDNAKNTVYFQMNSLQPEDTAVYYCAVDGPYPAASQSEVGYDYWGQGTQVTVSS	low polyreactivity
QVQLVESGGGLVQAGGSLRLSCAASGIIFASNGMGWYRQAPGKERELVAAISSGGSTNYADSVKGLFTISRDHAKNTVYLQMNSLKPEDTAVYYCAADRWDRDYDYWGQGTQVTVSS	low polyreactivity
QVQLVESGGGLVQAGGSLRLSCAASGRIFPKYAMGWYRQAPGKERELVAAISSSGGSTYYADSVKGRFTISRDNAKNTVYLQMNSLKPEDTAVYYCAAEQYSYGYTIYEYWGQGTQVTVSS	high polyreactivity
QVQLVESGGGLVQAGGSLRLSCAASGRTFYTYVMGWYRQAPGKEREFVAAITYSGGSTYYADSVKGRFTISRDNAKNTVYLQMNSLKPEDTAVYYCNAEWTYSEWYGQYLEFDYWGQGTQVTVSS	high polyreactivity
